In patent US20230241247:

What was measured:
[1] = target: human IgG (total IgG in human serum / pooled human plasma)
[2] = target: hamster IgG (IgG in pooled hamster plasma)
[3] = target: rhesus IgG (total IgG in rhesus macaque plasma)

B1: immunoglobulin G (IgG)-degrading enzyme from Streptococcus pyogenes (IdeS; Promega) (protein)
chain: DSFSANQEIRYSEVTPYHVTSVWTKGVTPPANFTQGEDVFHAPYVANQGWYDITKTFNGKDDLLCGAATAGNMLHWWFDQNKDQIKRYLEEHPEKQKINFNGEQMFDVKEAIDTKNHQLDSKLFEYFKEKAFPYLSTKHLGVFPDHVIDMFINGYRLSLTNHGPTPVKEGSKDPRGGIFDAVFTRGDQSKLLTSRHDFKEKNLKEISDLIKKELTEGKALGLSHTYANVRINHVINLWGADFDSNGNLKAIYVTDSDSNASIGMKKYFVGVNSAGKVAISAKEIKEDNIGAQVLGLFTLSTGQDSWNQTN
cleavage of IgG in serum/plasma in vitro (non-reducing SDS-PAGE, Coomassie stain) [1]: IdeS is a highly efficient and specific protease of human IgG, rhesus IgG and hamster IgG | cleavage of IgG in serum/plasma in vitro (non-reducing SDS-PAGE, Coomassie stain) [2]: IdeS is a highly efficient and specific protease of human IgG, rhesus IgG and hamster IgG | cleavage of IgG in serum/plasma in vitro (non-reducing SDS-PAGE, Coomassie stain) [3]: IdeS is a highly efficient and specific protease of human IgG, rhesus IgG and hamster IgG
